The values that follow come from the domain aggregation screens of Martell et al. (2025).

This series is described as follows: soluble fraction after stress (log2 fold change); higher = more stays soluble; pooled small domains, quantitative proteomics. As to conditions: stress: pH 4. A digest of the protocol:
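Pooled custom libraries of small protein domains were stressed at pH 4 and then measured by high-throughput quantitative proteomics. The fold change in the amount of each domain that stays soluble after the acid stress serves as a measure of aggregation propensity. Fold changes are given on a log2 scale, and higher values mean more of the domain stayed soluble.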
Consider “HMKTLPADPTVKNFSYTVVDGEIYYRENSIMTQIELSDNAKGRVAGMVELRQIVNELIDQQLND”, for which the “soluble fraction (log2)” value is -1.52.
In the case of “HMKTMEQSYIGRKIILDENVEDSALIKFEGIYWTFKSVSGPLKKGTEVEIIGIEGNKILIKNK”, the “soluble fraction (log2)” value stood at 0.181.
For “HMKTPIEFGSVYNDPVRYVIGMSIKSAESINQAIYDMMKIFGDENNMNKFDSLPDEQAVLDMVNSF” the value was -0.208.
Under “HMKTRIQDLRKELGVTQSELADAVDVTRQTIISLEGGRYKASLVLAHKLAQFFHVTIEELFIFD” stands -0.918; under “HMKTRNISGNHEAVWQAVRSRTQAGHPTTRAVIMDDLKAQGLNTQKFSRWLKKLVDDGSVYMDGDTIIMGK”, -0.12; under “HMKTRTVVLKSAGGNKIAVIKIIKEITGLGLVEAKAVADNGGNIKENIPAEEAEAIKTQLTEAGAEVEL”, -0.242.
For “HMKTRYPNVYQDEKGKFFYQIFIGTDTNGRKKLKKGRRDALGHPFSSAYQASKEAKRVQALYANVS”, the “soluble fraction (log2)” value is -0.0451.
Under “HMKTSTGSAMYLTLDLAEKYAGQAFTLVHKKADGTFEYLYATADVDGKVKFGPVYELSPFMLVKGQL” stands -0.674; under “HMKTSVGSKMMVMANNLSIRKSANLLSEKLADLSKGDMVEYISSTNGWNKVRYNGYVGYVSSYYLKDTGEV”, 0.375; under “HMKTTKDSVFEYIQKELMTNEEYKQGINTNVIAQHFGLQRSNISTILNELVKEDRLEKTNTRPVLYFLPQ”, 0.184.
Turning to “HMKTTKRERARAKLIQLLENEDRPAKEIYAGLGDIGVGSRTVEKVKKELQVTTYRSGGSWYWSLPKP”, the “soluble fraction (log2)” value is -0.147.
Turning to “HMKTVKPSQIPYSEFLKLVETDKINDVSMVGRNIIGHLDDGSKFKTYTPPNDPTLIEKLSSHNIVINAAPE”, the “soluble fraction (log2)” value came to 0.134.
With “HMKTVLDSLLRILDSKELDIVVLRHIVGLTLTEIAKEKDMKKGTVFWMYNRAVKKLRLESERMGL”, the “soluble fraction (log2)” value is -0.977.
For “HMKTVPNVEGEKDGTAQSAIESAGLKVGKVTYQYDDNTSKGLVISQSVKGGEKVKPNTAIDLVVSNGPK”, the “soluble fraction (log2)” value worked out at 0.22.
Under “HMKTYSEAQLKIALESLIENGKKQGYLTFQEINEILPDGIINTQDLKVIISILKETGIVVAKEKPEINIDV” stands 0.273; under “HMKVEFTPAYLKKFKANKNAWKFYEAQTNTYKKQSAWYVISAKQEETRLRRLDLLIYDSENGIHIKPLRR”, 0.211; under “HMKVFTEDEMLEKIKEYLSTNSYINRRVMETQFGLRQNIALKWLKHFTEIGVLRKEGERNSPIYFLNN”, 0.154.
Regarding “HMKVKIFNGMKLVTNSTGLTVDGKPAALDESNADAKTYSQGLYVFIVYQSGKIAVMQDGKFLGYA”, the “soluble fraction (log2)” value amounted to 0.301.
As to “HMKVLNVLESEIVRLFKQGQQKDNIRDNIYKTHGQHYNNKKSFNVVFGRKWNSLLEQGFLES”, the “soluble fraction (log2)” value is 0.241.
As to “HMKVRDTQYIIEAAISKNVIRKSKNIYYYGTDIIGRSLEDAIASLNDKKNQDIKMTILQEIES”, the “soluble fraction (log2)” value was determined as 0.0993.
For “HMKVSKNKIVKGMGFHHVALKAVDFDASFKFYTEGLGMKFYTSWGEGNGKIAMLDLGDGGILELFA” the value was 0.22; for “HMKVTGITDDILQRLKQQKGYLMLSDKSSPDEIYAAFGVSKKVFKQAIGTLFKQRQIIIEEQGIRLAN”, 0.201.
For “HMKVTQDIIFKRNGEEIKSKVLEITPDLIIYIDYSRADNIAREINISEVNMIIYKNGTSEIFSRPEE” the value was -1.15; for “HMKVTTGIDGLIGEEGVALSDFSGKGKIMVHGEIWNAEFSGEVKKGEVLLVEKANGMTLITRKKN”, -0.401.
For “HMKYKWLAGQLRRELLENGGKKGYKLPTELELARRYQLSRQTVRRALQLLEEEGLILRRQGSGAYATGKPP”, the “soluble fraction (log2)” value stood at 0.0629.
With “HMKYLREEDYLPIGSIIRLDDRNFRVDHVNFMFKSVSLQDMDLTNSGQPIFRSESLPHIRELYEQQQNELV”, the “soluble fraction (log2)” value was -1.09.
Under “HMKYYIYQGLGDSGELTKIAEVTDVKTYTATGLEANTKYRFAVSAYNGLRESSKSNIITVTT” stands -0.325; under “HMLADIGGRIADLRREVGLTQGELAEKADISVVHLSNIELGKKTPGLSTLIRIAEALDVATDWILQA”, -1.13.
Consider “HMLAFDKDDSGAVAEIILVLGRYWMDFSHKKYPAAEGVALRHKGLSHIFTVLRPYLSTPASELIGERLRR”, for which the “soluble fraction (log2)” value stood at 0.22.
In the case of “HMLAGVDTLADRELEVFQMLGRGKSTKEIAQVLNLGESTVETYRARIKEKLQLRSAAELYLRAGQWVRDHG”, the “soluble fraction (log2)” value is -0.426.
Regarding “HMLAIKKGGIFAILGPNGSGKSTFSKVLAGHPAYTVVDGDIFFKGLSILDLEPEERSHLGIFLAFQ”, the “soluble fraction (log2)” value is -0.151.
For “HMLAKRYLVYGSGSLNSAYPDTKNIAYGIDSGKGFFLVGILTENEASKLKLKGYYVIEDFPLDFH” the value was -0.921; for “HMLAPLAEMRGDTLDRLEKAVLELFSSRDFHEVSLQDVARRANVSLQTIYKYFGSKEALVYTMLDTLLGR”, -0.87; for “HMLAQVSDEGPIRAMVEAVMARSTQQLEDYKNGKVKLRQYFFGEVMKAAKGKANPTVINKLLDEMLPETL”, 0.0418.
Under “HMLAQYPGQVFSKEQIYNQVWKEPYYGVEDNVMSLIRRIRKKIEPDPSRPIYILTVWGIGYKFNN” stands 0.0406; under “HMLARFSGIALNTWTQADVERTFGPPMLVERVARFDGDIWTYRFMDDYEPRMAHIHIDRAGTVRQLVF”, -1.74; under “HMLAVEKIEFVGNERIAAADLESALSALYDRPMTTISDDEIAKLLSGFSLIETFTSQAEPPHTLRVNIRE”, -0.452.
Under “HMLDEKFLSELMLALLRNHRRGLRAEVLLHKVRSNMELDGYKSLLVGVGRMEMWELAREIIDFVKAEG” stands -2.07; under “HMLDGFEVGMTVMRKPGTETGFTGWPPFADKDEFPVIERIDTSDSTLLLRFNDTSWWINASLVEPSDV”, -0.729.
Consider “HMLDIPEVGQAVQVRGRLGTVFSVAPYDGREGRLHLVTVDYLDDARPPENDEILWEIESGARILG”, for which the “soluble fraction (log2)” value was -0.763.
Take “HMLDLNEVEFYAIENQLKENLKIDSKRFYELVPLIKGYQEDDIIQVLRWLIDNNRIIRHKDESLTWHS”: the “soluble fraction (log2)” value was -1.02.
For “HMLDLSEEEQKIVSILEKQGNLQINSLVVEADIPVHKINAILFELEMKGVVRVLALSLIHISEP” the value was -0.628; for “HMLDPVLQREKDESFTDYHIRLFKNKDTYHIDTKTIATLLNKDQGTNYDESKWRKDFKQYERWNDYIMSKN”, -0.155.
For “HMLDPYNVLGVPRDAGMDEIKKAYRKLSRTYHPDANIDNPNKAQAEEKFKQIQEAYQQIVKERTE”, the “soluble fraction (log2)” value is -0.152.
For “HMLDQAVPVFETPKYAVSYIQNRLVEMKAASPEEAASRFYESISESERRGLFEALLIKEAEES” the value was -0.821.
As for “HMLDQGTQSRYQIMDGVRALITGDWSSHGAGLVRELSQEVARTSGLTATSERTFFVPFSALS”, the “soluble fraction (log2)” value was -0.111.
Regarding “HMLDSDARRRGLIEYLSLNGYATMRQLAGEFDVSINTIQRDITYLARYYPLETAYGRYGGGVYFEQNWQ”, the “soluble fraction (log2)” value was -1.04.
In the case of “HMLDSGNPILPYKLSLLANVDIRTVRNAISAGELVAFKSEFDGEVYVENGSARRWLHGRRGFKPTLK”, the “soluble fraction (log2)” value was -0.772.
As to “HMLDSNILTLIKELKIRHHFTATQTHQLEKVIQQAHALGLDNSEIRSLANSSPSAKSLINDLNQKLEPLRL”, the “soluble fraction (log2)” value was ≥ 0.43.
For “HMLDTELEANLRSQRDQKLVEELDPIVTNPLRWAELTSDKQTEWTQYRTDLLNVPQQSGFPTNVTWPEKP” the value was -0.401; for “HMLDVFSAEQVADVLSVSKRNLETWANNGKLIPDFIHGEVALYSKKQLEQFEQFQRFFNSSWDAERLIQP”, -1.24.
Under “HMLDVGDQLVKKLKDNDSLDFHFVNSKEANKGLKDGDYYMVITIPSNFSKNATTLLDKNPKKMVLNYTTNP” stands 0.13.
For “HMLEAKQIQDNWESLIKLIEDNFTGERKENLLKMYTHFQDRMMFAPASSKEHFHNAFPGGYVEHVL” the value was -0.942.
With “HMLEDIDNSIKKEIILEHYDKMLEFHGDYGAIIFRKLLHAYSKGYTGANEFRDLVNQISDKNIMRDLIESF”, the “soluble fraction (log2)” value was -1.17.
Under “HMLEEIIDVKRFLVENVRGVSEKTALAILSEFGDKTMDVLRNSPNELYRIKGMSGKRIEVIKDAIANATAS” stands -1.33; under “HMLEINTIIGNNLKKIRQEKKLTLDELAGITGVSKGMLSQIEKGTTNPTINTIWKISNGLNVPYTYLLEDD”, -0.0827.
For “HMLENIVFTNKFKNKRLDVLLVDMKLVSSRQKAVSLIMRGNVFVEEERADKPGKIIKLNQTISLKK” the value was ≥ 0.43; for “HMLERPLKLKSHYVSAINEKVAVQFQAGEERKSIMGTLTEVNQDTIVIDDRGSVTEIPFKSIIRAKTVF”, -0.163; for “HMLESPVEAIIRQIKQLITNGKLKPGDRLPAERLLAENFGVGRGYVREAIMKLEFFGLLKTSPQSGTYVAG”, -0.257.
Under “HMLETIDIFKVTGGEPFLSKDFLEILDLAIEKDLAKNITLMITTNASKFVKKILDKFIHFKRVEFTVS” stands -1.05; under “HMLFGKKYLGKVPNDASGRISLWNDIVKHHQELQNIRAIENFTSDNVTVAQGDTKKAVVVTDYVT”, -0.152.
Take “HMLFQGDTPAENIILEILSKNGTTASDSIIKQSGLSVSDFNQAATMLEIKGLISNNGGNIWSL”: the “soluble fraction (log2)” value is -0.254.
For “HMLFVKLSDAQRSMFGAKLARDARIQSEYAQKLPSENYEVFGKALADMLLDETHFKTFYPLLVEYGYTQPK” the value was -0.649; for “HMLGDIYISIPRAKLQAEEYGHSFKRELAFLAVHGFYHLLGYDHQTKEEEEVMFGKQEEVLAEFDIKR”, -0.245.
Under “HMLGKNEAKEYKVAYGDIGKMPALIMGLVPLPKPPVVDERLRTLYVTATPEQHREIEAIMNRI” stands -0.306.
For “HMLGKSNAERQLDLILGAIERSITGVSRSKLMQAYHLDSRGATAAFETLEQRGLITRSKSGRTELLIPTRV” the value was 0.126; for “HMLGWEDVIQFEEVKGYGQHIWRDGNHLYYVTEEGGIAPQRVVYELPNELFALLESGERTQLEILSKLQ”, -2.35.
Consider “HMLHNEFINDRIQSAINNLSEHFKIVIILRDIQELSYEEISNIVEVPLGTIKSRINRARIQLQAELLDL”, for which the “soluble fraction (log2)” value came out at 0.103.
For “HMLILDTDGRYVIKRGDSLSEILEKIANGSNINLNLLKRAFVTANPKAFKRANPNWMYANAR” the value was -0.145.
